In article PMC5059438:

Target: Ops*, an active form of opsin which is similar to metarhodopsin II (UniProt P02699)

molar mass of functionally reconstituted scramblase, from the fit of p(≥1 scramblase) versus PPR* (dithionite/NBD-PC scramblase assay on proteoliposomes): 90800 g/mol
Substance: Ops*, an active form of opsin which is similar to metarhodopsin II (from UniProt P02699 1-348) (receptor)
